Measured values as given in US20110191903A1, “ENGINEERING PLANT RESISTANCE TO DISEASES CAUSED BY PATHOGENS” (Pioneer Hi-Bred International, Inc., priority 2009, published 2011).
Substitutions are numbered along the chain they refer to. Names and notes keep the numbering of the source.

Key:
Assay type in all cases: biochemical, Ceriporiopsis subvermispora
[1] = substrate: O=C(O)C(=O)O; experiment: Oxalate oxidase kinetics, coupled horse radish peroxidase assay, ALT1 (WT-Q7)
From the text: (§1) The E. coli expression system was based on the published protocol of Escutia et al. Escutia et al., Cloning and sequencing of two Ceriporiopsis subvermispora bicupin oxalate oxidase allelic isoforms: implications for the reaction specificity of oxalate oxidases and decarboxylases. (2005). The coding sequence for the mature OXOX enzyme was inserted in E. coli expression vector pET32 (Invitrogen) to include a 6× histidine tag at the C-terminus. The resulting expression plasmid was transformed into E. coli strain BL21Star pLysS (Invitrogen).
(§2) E. coli cultures were grown at 37° C. At optical density 0.4, arabinose was added to a concentration or 0.4%. After another hour of growth at 37° C., MnCl2 was added to 5 mM and IPTG to 1 mM. Cultures were then grown at 25° C. for 16 hours. Cells were harvested by centrifugation at 4000 rpm for 10 min. The supernatant was discarded and cell pellets were kept at −80° C. for at least one hour. Pellets were resuspended in total 40 ml of lysis buffer with 50 mM phosphate buffer pH7, 2 mg/ml protease inhibitor (sigma P-8465), 100 mM KCL, 1/1000 lysozyme, 1/2000 endonuclease, and incubated at 37° C. with shaking for one hour, followed by sonication. Cellular debris was removed by centrifugation and the clarified supernatant was poured into a new tube. Nickel resin (Qiagen) was added. After a short period of incubation, the slurry was poured onto a column and washed with buffer. Purified OXOX protein was eluted from the resin in 50 mM succinate pH 5, 100 mM KCl. The E. coli expression procedure was scalable allowing large scale protein production for kinetic analysis as well as small scale production for high throughput screening of libraries.
(§3) Oxalate oxidase enzymatic activity was determined in a coupled reaction. Oxalate oxidase converts oxalic acid to carbon dioxide and hydrogen peroxide. In the presence of horse radish peroxidase, hydrogen peroxide reacts with 3-methyl-2-benzothiazolinone hydrazone (MBTH) and N,N-dimethylaniline (DMA) to form indamine dye, which can be detected spectrophotmetrically or colorimetrically as described by Laker, M. F., Hoffman, A. F., and Meeuse, J. D. (1980) Clinical Chemistry 26, 827-830. The coupled reaction was used for characterization of oxalate oxidase kinetic properties as well as in a screening procedure to identify oxalate oxidase variants with improved enzymatic properties.
(§4) Three potential glycosylations sites with the consensus amino acid sequence N—X—(S/T) were identified in OXOX-C at amino acid positions 60, 384 and 430 in SEQ ID NO:27. Site-directed mutagenesis was used to alter these sites (Quickchange, Stratagene). Every possible amino acid substitution was generated at the third amino acid position of each potential glyosylation site. The resulting variants were screened for activity using the enzymatic assay described in Example 3. […] These variants correspond to sequences OXOX-C-MOD1-ALT1 (SEQ ID NO:23) and OXOX-C-MOD1-ALT2 (SEQ ID NO:24).
(§5) More modest improvements in Km and Kcat were observed under lower pH conditions. Coupled reaction was preformed as described in Example 3. Enzyme kinetic parameters were determined by standard methods as described in Segel (1976) Biochemical calculations, 2nd Edition. John Wiley & Sons, London, New York, Sydney, Toronto.

[2] = substrate: O=C(O)C(=O)O; experiment: Oxalate oxidase kinetics, coupled horse radish peroxidase assay, ALT5 (2-6)
From the text: as §1, §2, §3
(§6) DNA shuffling was performed as described elsewhere herein. A polymerase chain reaction product corresponding to the OXOX-C coding sequence was fragmented by limited nuclease treatment. Synthetic oligonucleotides encoding sequence diversity from oxalate decarboxylase sequences found in public databases were added. A polymerase chain reaction procedure was performed on the mixture to yield a library of full length OXOX-C coding sequences with additional diversity incorporated. The resulting library was inserted in expression vector pET32, E. coli cells were transformed and protein was expressed, as described in Example 2. A tiered screening strategy was devised based on the OXOX protein expression and enzymatic activity determination procedures described in Examples 2 and 3, respectively. A high throughput screening process based on colorimetric determination of OXOX activity was utilized to identify individual E. coli strains harboring active OXOX variants. These OXOX-active strains were reassayed using quantitative spectrophotometric determination of OXOX activity. […] Three rounds of this iterative screening and selection procedure were completed, and OXOX variants with up to 8-fold improved activity were identified
as §5

[3] = substrate: O=C(O)C(=O)O; experiment: Oxalate oxidase kinetics, coupled horse radish peroxidase assay, ALT3 (1-8)
From the text: as §1, §2, §3, §6, §5

[4] = substrate: O=C(O)C(=O)O; experiment: Oxalate oxidase kinetics, coupled horse radish peroxidase assay, ALT2 (glyc-)
From the text: as §1, §2, §3, §4, §5

[5] = substrate: O=C(O)C(=O)O; experiment: Oxalate oxidase kinetics, coupled horse radish peroxidase assay, ALT4 (1-23)
From the text: as §1, §2, §3, §6, §5

[6] = substrate: O=C(O)C(=O)O; experiment: Oxalate oxidase kinetics, coupled horse radish peroxidase assay, ALT6 (3-21)
From the text: as §1, §2, §3, §6, §5

[7] = substrate: O=C(O)C(=O)O; experiment: Oxalate oxidase kinetics, coupled horse radish peroxidase assay, ALT7 (3-25)
From the text: as §1, §2, §3, §6, §5

[8] = substrate: O=C(O)C(=O)O; experiment: Oxalate oxidase kinetics, coupled horse radish peroxidase assay, FG10
From the text: as §1, §2, §3, §6, §5

[9] = substrate: O=C(O)C(=O)O; experiment: Oxalate oxidase kinetics, coupled horse radish peroxidase assay, FG23
From the text: as §1, §2, §3, §6, §5

B1: Ceriporiopsis subvermispora oxalate oxidase OXOX-C variant ALT1 (WT-Q7), glycosylation minus, T60I/T384Q/S430Q relative to SEQ ID NO: 37, SEQ ID NO: 23 … (protein)
chain: RPTENGPQIVIANNAGTYLPVLRGSGTKSSSAADATQTVPFASDDPNPRLWDIDTKNLIKVTPERGQLGAKILGPDNLPIDLQNADTLAPPTTDSGSIPNPKWPFALSHNTLYSGGWVRIQNDEVMPIAKAMAGVNMRLEAGAIRELHWHNTPEWAYILKGTTQITAVDQNGRNYLANVGPGDLWYFPEGMPHSLQGTDANNEGSEFLLIFPDGTFDSSNQFMITDWLAHTPKDVIAKNFGVDISEFDRLPSHDLYIFPGVAPPLDAKAPEDPQGTIPLPYSFEFSKVKPTQYAGGTVKIADTRTFPIAKTISVAEVTVEPGAMRELHWHPTEDEWTFFIEGQARVTIFAGQSNAQTYDYQGGDIAYIPTAWGHYVENSGNTQLRFLEIFNSPLFEDVSLAQWIANTPPAIVKATLQLSDEVINTLNKQKAFVVG
notes: glycosylation sites removed
[1]; other: pH 3.8, pH 3.8
  Km: 330 µM
  kcat: 5.00 s⁻¹
[1]; other: pH 4.8, pH 4.8
  Km: 1210 µM
  kcat: 2.70 s⁻¹
[1]; other: pH 5.8, pH 5.8
  Km: 6010 µM
  kcat: 0.85 s⁻¹

B2: Ceriporiopsis subvermispora oxalate oxidase OXOX-C variant ALT5 (2-6), I54M/I60E/I99V/W118Y/F259Y/I278V/F339Y/Y359F/F396Y relative to OXOX-C-ALT1 (SEQ ID NO: … (protein)
chain: B1 chain with I53M, I59E, I98V, W117Y, F258Y, I277V, F338Y, Y358F, F395Y
[2]; other: pH 3.8, pH 3.8
  Km: 460 µM
  kcat: 10.01 s⁻¹
[2]; other: pH 4.8, pH 4.8
  Km: 2320 µM
  kcat: 7.06 s⁻¹
[2]; other: pH 5.8, pH 5.8
  Km: 8910 µM
  kcat: 2.44 s⁻¹

B3: Ceriporiopsis subvermispora oxalate oxidase OXOX-C variant ALT3 (1-8), I54M/I99V/W118Y/F259Y/I278V/F339Y/F396Y relative to OXOX-C-ALT1 (SEQ ID NO: 35), SEQ ID … (protein)
chain: B1 chain with I53M, I98V, W117Y, F258Y, I277V, F338Y, F395Y
[3]; other: pH 3.8, pH 3.8
  Km: 310 µM
  kcat: 4.69 s⁻¹
[3]; other: pH 4.8, pH 4.8
  Km: 1700 µM
  kcat: 3.21 s⁻¹
[3]; other: pH 5.8, pH 5.8
  Km: 8380 µM
  kcat: 1.36 s⁻¹

B4: Ceriporiopsis subvermispora oxalate oxidase OXOX-C variant ALT2 (glyc-), glycosylation minus, T60R/T384V/S430D relative to SEQ ID NO: 37, SEQ ID NO: 24 … (protein)
chain: B1 chain with I59R, Q383V, Q429D
notes: glycosylation sites removed
[4]; other: pH 3.8, pH 3.8
  Km: 280 µM
  kcat: 5.60 s⁻¹
[4]; other: pH 4.8, pH 4.8
  Km: 1240 µM
  kcat: 2.99 s⁻¹
[4]; other: pH 5.8, pH 5.8
  Km: 5900 µM
  kcat: 0.91 s⁻¹

B5: Ceriporiopsis subvermispora oxalate oxidase OXOX-C variant ALT4 (1-23), W118Y/I166V/F259Y/I278V/Y282F/F339Y/F396Y relative to OXOX-C-ALT1 (SEQ ID NO: 35), SEQ … (protein)
chain: B1 chain with W117Y, I165V, F258Y, I277V, Y281F, F338Y, F395Y
[5]; other: pH 3.8, pH 3.8
  Km: 350 µM
  kcat: 4.08 s⁻¹
[5]; other: pH 4.8, pH 4.8
  Km: 1320 µM
  kcat: 2.70 s⁻¹
[5]; other: pH 5.8, pH 5.8
  Km: 5510 µM
  kcat: 0.85 s⁻¹

B6: Ceriporiopsis subvermispora oxalate oxidase OXOX-C variant ALT6 (3-21), L23P/I60E/T63Q/I99V/L177M/L196I/F259Y/I278V/F339Y/F387Y/F396Y relative to OXOX-C-ALT1 … (protein)
chain: RPTENGPQIVIANNAGTYLPVPRGSGTKSSSAADATQTVPFASDDPNPRLWDIDTKNLEKVQPERGQLGAKILGPDNLPIDLQNADTLAPPTTDSGSVPNPKWPFALSHNTLYSGGWVRIQNDEVMPIAKAMAGVNMRLEAGAIRELHWHNTPEWAYILKGTTQITAVDQNGRNYMANVGPGDLWYFPEGMPHSIQGTDANNEGSEFLLIFPDGTFDSSNQFMITDWLAHTPKDVIAKNFGVDISEFDRLPSHDLYIYPGVAPPLDAKAPEDPQGTVPLPYSFEFSKVKPTQYAGGTVKIADTRTFPIAKTISVAEVTVEPGAMRELHWHPTEDEWTYFIEGQARVTIFAGQSNAQTYDYQGGDIAYIPTAWGHYVENSGNTQLRYLEIFNSPLYEDVSLAQWIANTPPAIVKATLQLSDEVINTLNKQKAFVVG
[6]; other: pH 3.8, pH 3.8
  Km: 120 µM
  kcat: 2.79 s⁻¹
[6]; other: pH 4.8, pH 4.8
  Km: 550 µM
  kcat: 2.61 s⁻¹
[6]; other: pH 5.8, pH 5.8
  Km: 1460 µM
  kcat: 1.72 s⁻¹

B7: Ceriporiopsis subvermispora oxalate oxidase OXOX-C variant ALT7 (3-25), L23P/I54M/I60E/I99V/W118Y/P154A/I159V/L177M/D218N/F259Y/I278V/F339Y/Y359F/G363A/F396Y … (protein)
chain: B6 chain with I53M, Q62T, W117Y, P153A, I158V, I195L, D217N, Y358F, G362A, Y386F
[7]; other: pH 3.8, pH 3.8
  Km: 450 µM
  kcat: 12.01 s⁻¹
[7]; other: pH 4.8, pH 4.8
  Km: 2170 µM
  kcat: 8.28 s⁻¹
[7]; other: pH 5.8, pH 5.8
  Km: 7840 µM
  kcat: 5.85 s⁻¹

B8: Ceriporiopsis subvermispora oxalate oxidase OXOX-C variant FG10 (3-FG10), D53N/I60E/E65Q/K72E/S115T/Q171E/R174K/M192V/I278V/Y282F/Y359F/V399I/G436A plus S437, … (protein)
chain: RPTENGPQIVIANNAGTYLPVLRGSGTKSSSAADATQTVPFASDDPNPRLWNIDTKNLEKVTPQRGQLGAEILGPDNLPIDLQNADTLAPPTTDSGSIPNPKWPFALSHNTLYTGGWVRIQNDEVMPIAKAMAGVNMRLEAGAIRELHWHNTPEWAYILKGTTQITAVDENGKNYLANVGPGDLWYFPEGVPHSLQGTDANNEGSEFLLIFPDGTFDSSNQFMITDWLAHTPKDVIAKNFGVDISEFDRLPSHDLYIFPGVAPPLDAKAPEDPQGTVPLPFSFEFSKVKPTQYAGGTVKIADTRTFPIAKTISVAEVTVEPGAMRELHWHPTEDEWTFFIEGQARVTIFAGQSNAQTFDYQGGDIAYIPTAWGHYVENSGNTQLRFLEIFNSPLFEDISLAQWIANTPPAIVKATLQLSDEVINTLNKQKAFVVASD
notes: C-terminal 6xHis, pET32, E. coli, nickel purified
[8]; other: pH 3.8, pH 3.8
  Km: 400 µM
  kcat: 8.01 s⁻¹
[8]; other: pH 4.8, pH 4.8
  Km: 1830 µM
  kcat: 6.00 s⁻¹
[8]; other: pH 5.8, pH 5.8
  Km: 5900 µM
  kcat: 2.65 s⁻¹

B9: Ceriporiopsis subvermispora oxalate oxidase OXOX-C variant FG23 (3-FG23), … (protein)
chain: RPTENGPQIVIANNAGTYLPVLRGSGTKSSSAADATQTVPFASDDPNPRLWNIDTQDLSVVAPERGPLGAKILGPDNLPIDLQNADTLAPPTTDSGSVPNPKWPFALSHNTLYSGGWVRIQNNEVLPIAKAMAGVNMRLEAGAIRELHWHNTPEWAYILKGTTQITAVDQNGRNYLANVSPGDLWYFPEGIPHSLQGTDANNEGSEFLLIFPDGTFDASNQFMITDWLAHTPKDVIAKNFGVDISEFDRLPSHDLYIFPGVAPPLDAKAPEDPQGTVPLPYSFEFSKVKPTQYAGGTVKIADTRTFPIAKTISVAEVTVEPGAMRELHWHPTEDEWTFFIEGQARVTIFAGQSNAQTYDYQGGDIAYIPTAYGHYVENSGNTQLRFLEIFNSPLFEDVSLAQWIANTPPAIVKATLQLSDEVIDSLNKQKASVVG
[9]; other: pH 3.8, pH 3.8
  Km: 380 µM
  kcat: 7.06 s⁻¹
[9]; other: pH 4.8, pH 4.8
  Km: 1210 µM
  kcat: 4.62 s⁻¹
[9]; other: pH 5.8, pH 5.8
  Km: 5250 µM
  kcat: 2.61 s⁻¹
